Results reported in the supplement of paper PMC10065799, “High-throughput profiling of sequence recognition by tyrosine kinases and SH2 domains using bacterial peptide display” (eLife, 2023).

system: c-Abl (mouse); test: phosphorylation enrichment, bacterial display (enrichment ratio); higher = better substrate or ligand; peptides without Tyr show the background
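Also: 11-residue human phosphosite peptides and single-mutation variants displayed on the E. coli surface, counted by deep sequencing, each peptide's frequency after selection divided by its frequency in the unselected input library; frequency after pTyr selection over input frequency; kinase dosed for 20-30% of maximal phosphorylation in three min.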

Going from KIKGWYEKCEP [KRT26_Y119] to HHTDECEFDEL [TGM1_Y134_Y134C_YF], the phosphorylation enrichment rises from 0.786 to 0.858.

First: TGVWDYIHVVD [GALE_Y241_R239W]
Second: EDDPEYMRLRN [ADD2_Y31]
The phosphorylation enrichment of the first is higher: 0.966 for the first, 0.823 for the second.

First: GLRQGYFVEAQ [APCS_Y142]
Second: EFFDGYWGFSV [ITGA2B_Y265_YF]
The phosphorylation enrichment of the first is lower: 0.529 for the first, 1.53 for the second.

Compared with RMSSSYPTGLA [ADM_Y52], ISIFHYAKGQP [MPZ_Y82] is higher in phosphorylation enrichment: 0.518 for the first, 0.644 for the second.

First: DHPSEYAARQL [ANXA13_Y90_R86H]
Second: FSTDFYRVGGH [NTRK2_Y707_YF]
The phosphorylation enrichment of the first is lower: 0.66 for the first, 0.756 for the second.

Going from ILTYKYLQIPM [KIT_Y547_K550I] to REIHDYIKHLG [UNC13C_Y308_D304E], the phosphorylation enrichment rises from 0.706 to 0.794.

First: NYYDLYGGEKF [PTPN11_Y66_D61N]
Second: ISDNACQFMLT [MYH7_Y162_Y162C_YF]
The phosphorylation enrichment of the first is higher: 0.725 for the first, 0.696 for the second.

First: RDHYGYRQSVT [CD55_Y245]
Second: EVESPYEVRDF [GIGYF2_Y1168_H1171R_YF]
The phosphorylation enrichment of the first is lower: 0.794 for the first, 1.09 for the second.

Going from MPQNEYIELHR [NSA2_Y6] to LFMGDYVGRGF [PPP2CA_Y86_D88G_YF], the phosphorylation enrichment rises from 0.497 to 1.1.

Going from ADLLVYIKALN [HPRT1_Y81_D80V] to RNFDTYTAGLS [RHBDD1_Y264_YF], the phosphorylation enrichment falls from 0.939 to 0.436.

Compared with CTTIHFNYMCN [TP53_Y234_Y234F], NVVVPYEPPEV [TP53_Y220_S215N] is higher in phosphorylation enrichment: 0.458 for the first, 0.768 for the second.

First: LDPIQYSKHPP [SQSTM1_Y433_T430P]
Second: SGTFQYIIAKF [FOXL2_Y83_I80T_YF]
The phosphorylation enrichment of the first is lower: 0.448 for the first, 0.878 for the second.

Going from FTGDIYSNSNL [LZTR1_Y141_YF] to GHNDVYISEHV [GRIN2A_Y1423], the phosphorylation enrichment falls from 0.831 to 0.33.

Going from RCNHPYLINGA [CHD7_Y1256_C1251R] to KFLENYLNCLL [PLD2_Y169_R172C_YF], the phosphorylation enrichment rises from 0.578 to 0.91.

Going from ISITPYPAILH [IFT80_Y588] to DLLMQYPKAQG [FAM83C_Y600], the phosphorylation enrichment falls from 0.865 to 0.491.

Going from ARGTRYRFVSQ [UCN3_Y95_YF] to EFGFRYELVQY [UGGT2_Y1289_Y1285F], the phosphorylation enrichment falls from 0.63 to 0.627.

In the case of DLGIQYKALKP [CTNNA1_Y177], the phosphorylation enrichment is reported as 0.573.

system: Fer (mouse); test: as above

Going from KIKGWYEKCEP [KRT26_Y119] to HHTDECEFDEL [TGM1_Y134_Y134C_YF], the phosphorylation enrichment falls from 0.541 to 0.463.

Compared with TGVWDYIHVVD [GALE_Y241_R239W], EDDPEYMRLRN [ADD2_Y31] is higher in phosphorylation enrichment: 0.493 for the first, 0.589 for the second.

First: GLRQGYFVEAQ [APCS_Y142]
Second: EFFDGYWGFSV [ITGA2B_Y265_YF]
The phosphorylation enrichment of the first is lower: 0.42 for the first, 0.54 for the second.

Going from RMSSSYPTGLA [ADM_Y52] to ISIFHYAKGQP [MPZ_Y82], the phosphorylation enrichment falls from 0.502 to 0.434.

Going from DHPSEYAARQL [ANXA13_Y90_R86H] to FSTDFYRVGGH [NTRK2_Y707_YF], the phosphorylation enrichment rises from 0.365 to 0.471.

Compared with ILTYKYLQIPM [KIT_Y547_K550I], REIHDYIKHLG [UNC13C_Y308_D304E] is higher in phosphorylation enrichment: 0.389 for the first, 0.651 for the second.

First: NYYDLYGGEKF [PTPN11_Y66_D61N]
Second: ISDNACQFMLT [MYH7_Y162_Y162C_YF]
The phosphorylation enrichment of the first is higher: 2.32 for the first, 0.51 for the second.

Going from RDHYGYRQSVT [CD55_Y245] to EVESPYEVRDF [GIGYF2_Y1168_H1171R_YF], the phosphorylation enrichment rises from 0.748 to 9.13.

First: MPQNEYIELHR [NSA2_Y6]
Second: LFMGDYVGRGF [PPP2CA_Y86_D88G_YF]
The phosphorylation enrichment of the first is lower: 0.325 for the first, 0.412 for the second.

Compared with ADLLVYIKALN [HPRT1_Y81_D80V], RNFDTYTAGLS [RHBDD1_Y264_YF] is lower in phosphorylation enrichment: 0.511 for the first, 0.394 for the second.

Compared with CTTIHFNYMCN [TP53_Y234_Y234F], NVVVPYEPPEV [TP53_Y220_S215N] is higher in phosphorylation enrichment: 0.572 for the first, 0.58 for the second.

Compared with LDPIQYSKHPP [SQSTM1_Y433_T430P], SGTFQYIIAKF [FOXL2_Y83_I80T_YF] is lower in phosphorylation enrichment: 0.634 for the first, 0.473 for the second.

First: FTGDIYSNSNL [LZTR1_Y141_YF]
Second: GHNDVYISEHV [GRIN2A_Y1423]
The phosphorylation enrichment of the first is higher: 2.87 for the first, 0.317 for the second.

Going from RCNHPYLINGA [CHD7_Y1256_C1251R] to KFLENYLNCLL [PLD2_Y169_R172C_YF], the phosphorylation enrichment rises from 0.505 to 0.532.

Going from ISITPYPAILH [IFT80_Y588] to DLLMQYPKAQG [FAM83C_Y600], the phosphorylation enrichment rises from 0.37 to 0.452.

Compared with ARGTRYRFVSQ [UCN3_Y95_YF], EFGFRYELVQY [UGGT2_Y1289_Y1285F] is higher in phosphorylation enrichment: 0.492 for the first, 0.611 for the second.

Work on DLGIQYKALKP [CTNNA1_Y177] yielded a phosphorylation enrichment of 0.498.

system: AncSZ; test: as above

Compared with KIKGWYEKCEP [KRT26_Y119], HHTDECEFDEL [TGM1_Y134_Y134C_YF] is higher in phosphorylation enrichment: 0.996 for the first, 1.07 for the second.

First: TGVWDYIHVVD [GALE_Y241_R239W]
Second: EDDPEYMRLRN [ADD2_Y31]
The phosphorylation enrichment of the first is higher: 1.43 for the first, 1.2 for the second.

First: GLRQGYFVEAQ [APCS_Y142]
Second: EFFDGYWGFSV [ITGA2B_Y265_YF]
The phosphorylation enrichment of the first is lower: 0.945 for the first, 1.43 for the second.

Going from RMSSSYPTGLA [ADM_Y52] to ISIFHYAKGQP [MPZ_Y82], the phosphorylation enrichment rises from 0.525 to 1.04.

First: DHPSEYAARQL [ANXA13_Y90_R86H]
Second: FSTDFYRVGGH [NTRK2_Y707_YF]
The phosphorylation enrichment of the first is lower: 0.657 for the first, 0.722 for the second.

Compared with ILTYKYLQIPM [KIT_Y547_K550I], REIHDYIKHLG [UNC13C_Y308_D304E] is lower in phosphorylation enrichment: 1.11 for the first, 0.631 for the second.

Compared with NYYDLYGGEKF [PTPN11_Y66_D61N], ISDNACQFMLT [MYH7_Y162_Y162C_YF] is lower in phosphorylation enrichment: 1.48 for the first, 0.946 for the second.

Compared with RDHYGYRQSVT [CD55_Y245], EVESPYEVRDF [GIGYF2_Y1168_H1171R_YF] is higher in phosphorylation enrichment: 1.22 for the first, 1.57 for the second.

Compared with MPQNEYIELHR [NSA2_Y6], LFMGDYVGRGF [PPP2CA_Y86_D88G_YF] is higher in phosphorylation enrichment: 0.9 for the first, 1.38 for the second.

Going from ADLLVYIKALN [HPRT1_Y81_D80V] to RNFDTYTAGLS [RHBDD1_Y264_YF], the phosphorylation enrichment falls from 1.11 to 0.62.

Going from CTTIHFNYMCN [TP53_Y234_Y234F] to NVVVPYEPPEV [TP53_Y220_S215N], the phosphorylation enrichment rises from 0.68 to 1.11.

Compared with LDPIQYSKHPP [SQSTM1_Y433_T430P], SGTFQYIIAKF [FOXL2_Y83_I80T_YF] is higher in phosphorylation enrichment: 0.691 for the first, 1.09 for the second.

Going from FTGDIYSNSNL [LZTR1_Y141_YF] to GHNDVYISEHV [GRIN2A_Y1423], the phosphorylation enrichment falls from 0.957 to 0.552.

Going from RCNHPYLINGA [CHD7_Y1256_C1251R] to KFLENYLNCLL [PLD2_Y169_R172C_YF], the phosphorylation enrichment rises from 0.664 to 1.23.

Compared with ISITPYPAILH [IFT80_Y588], DLLMQYPKAQG [FAM83C_Y600] is lower in phosphorylation enrichment: 1.2 for the first, 0.812 for the second.

Going from ARGTRYRFVSQ [UCN3_Y95_YF] to EFGFRYELVQY [UGGT2_Y1289_Y1285F], the phosphorylation enrichment rises from 0.597 to 1.11.

For DLGIQYKALKP [CTNNA1_Y177], the phosphorylation enrichment was 0.754.

target: Jak2 (UniProt O60674); test: as above
Sequence (O60674 whole entry, looked up): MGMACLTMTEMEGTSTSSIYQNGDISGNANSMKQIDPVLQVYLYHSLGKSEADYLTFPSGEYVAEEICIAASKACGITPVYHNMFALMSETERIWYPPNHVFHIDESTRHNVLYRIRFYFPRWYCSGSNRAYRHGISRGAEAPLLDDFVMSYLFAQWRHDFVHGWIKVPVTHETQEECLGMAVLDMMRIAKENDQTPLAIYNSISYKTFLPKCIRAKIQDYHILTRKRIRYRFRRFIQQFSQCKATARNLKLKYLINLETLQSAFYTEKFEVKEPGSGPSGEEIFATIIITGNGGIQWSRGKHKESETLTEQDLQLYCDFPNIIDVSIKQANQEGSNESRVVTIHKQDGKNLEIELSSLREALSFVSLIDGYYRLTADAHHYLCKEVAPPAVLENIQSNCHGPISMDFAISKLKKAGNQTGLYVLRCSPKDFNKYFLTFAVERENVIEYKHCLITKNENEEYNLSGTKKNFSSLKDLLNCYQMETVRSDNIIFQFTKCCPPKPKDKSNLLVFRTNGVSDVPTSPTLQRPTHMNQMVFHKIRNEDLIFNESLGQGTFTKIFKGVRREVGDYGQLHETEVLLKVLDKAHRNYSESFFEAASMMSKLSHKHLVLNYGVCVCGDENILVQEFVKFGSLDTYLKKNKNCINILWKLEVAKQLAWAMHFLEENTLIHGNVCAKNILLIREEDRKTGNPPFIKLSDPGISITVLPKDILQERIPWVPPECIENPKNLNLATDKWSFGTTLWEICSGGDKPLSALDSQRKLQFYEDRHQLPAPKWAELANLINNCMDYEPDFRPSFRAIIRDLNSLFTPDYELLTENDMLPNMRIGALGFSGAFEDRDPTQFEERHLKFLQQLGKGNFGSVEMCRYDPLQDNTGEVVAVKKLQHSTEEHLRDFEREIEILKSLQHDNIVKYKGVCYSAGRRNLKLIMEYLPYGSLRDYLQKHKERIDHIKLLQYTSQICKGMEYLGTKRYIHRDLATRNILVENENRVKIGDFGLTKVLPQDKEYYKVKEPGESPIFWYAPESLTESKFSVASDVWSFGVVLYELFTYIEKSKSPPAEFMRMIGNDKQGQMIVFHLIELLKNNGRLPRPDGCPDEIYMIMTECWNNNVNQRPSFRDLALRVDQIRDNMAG

Compared with KIKGWYEKCEP [KRT26_Y119], HHTDECEFDEL [TGM1_Y134_Y134C_YF] is lower in phosphorylation enrichment: 1.07 for the first, 1.05 for the second.

Going from TGVWDYIHVVD [GALE_Y241_R239W] to EDDPEYMRLRN [ADD2_Y31], the phosphorylation enrichment falls from 1.39 to 1.12.

Going from GLRQGYFVEAQ [APCS_Y142] to EFFDGYWGFSV [ITGA2B_Y265_YF], the phosphorylation enrichment rises from 0.807 to 8.01.

Compared with RMSSSYPTGLA [ADM_Y52], ISIFHYAKGQP [MPZ_Y82] is higher in phosphorylation enrichment: 0.473 for the first, 0.855 for the second.

Going from DHPSEYAARQL [ANXA13_Y90_R86H] to FSTDFYRVGGH [NTRK2_Y707_YF], the phosphorylation enrichment rises from 0.576 to 0.704.

First: ILTYKYLQIPM [KIT_Y547_K550I]
Second: REIHDYIKHLG [UNC13C_Y308_D304E]
The phosphorylation enrichment of the first is lower: 0.817 for the first, 0.843 for the second.

Compared with NYYDLYGGEKF [PTPN11_Y66_D61N], ISDNACQFMLT [MYH7_Y162_Y162C_YF] is lower in phosphorylation enrichment: 1.97 for the first, 1.04 for the second.

Compared with RDHYGYRQSVT [CD55_Y245], EVESPYEVRDF [GIGYF2_Y1168_H1171R_YF] is higher in phosphorylation enrichment: 0.455 for the first, 1.63 for the second.

Going from MPQNEYIELHR [NSA2_Y6] to LFMGDYVGRGF [PPP2CA_Y86_D88G_YF], the phosphorylation enrichment rises from 0.7 to 3.61.

Going from ADLLVYIKALN [HPRT1_Y81_D80V] to RNFDTYTAGLS [RHBDD1_Y264_YF], the phosphorylation enrichment falls from 1.23 to 0.511.

First: CTTIHFNYMCN [TP53_Y234_Y234F]
Second: NVVVPYEPPEV [TP53_Y220_S215N]
The phosphorylation enrichment of the first is lower: 0.628 for the first, 1.11 for the second.

Going from LDPIQYSKHPP [SQSTM1_Y433_T430P] to SGTFQYIIAKF [FOXL2_Y83_I80T_YF], the phosphorylation enrichment rises from 0.481 to 0.953.

Compared with FTGDIYSNSNL [LZTR1_Y141_YF], GHNDVYISEHV [GRIN2A_Y1423] is lower in phosphorylation enrichment: 0.756 for the first, 0.407 for the second.

Going from RCNHPYLINGA [CHD7_Y1256_C1251R] to KFLENYLNCLL [PLD2_Y169_R172C_YF], the phosphorylation enrichment rises from 0.646 to 1.23.

Going from ISITPYPAILH [IFT80_Y588] to DLLMQYPKAQG [FAM83C_Y600], the phosphorylation enrichment falls from 1.2 to 0.496.

Compared with ARGTRYRFVSQ [UCN3_Y95_YF], EFGFRYELVQY [UGGT2_Y1289_Y1285F] is higher in phosphorylation enrichment: 0.742 for the first, 1.05 for the second.

In the case of DLGIQYKALKP [CTNNA1_Y177], the phosphorylation enrichment is reported as 0.725.
